The values that follow come from the nanobody polyreactivity screen of Harvey et al. (2022).

The nature of this data set: yeast display, Sf9 membrane polyspecificity reagent, FACS + sequencing; frameworks hold sequencing errors. The gist of the method:
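Genes from sorted yeast were amplified by colony PCR, read by MiSeq 2 × 250 sequencing and filtered on CDR length. These cells carried a synthetic nanobody library in Saccharomyces cerevisiae BJ5465 and were sorted by FACS into low and high (top ~1%) gates on anti-HA and streptavidin fluorescence. Polyreactivity is labelled according to the gate of origin.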
As to “QVQLVESGGGLVQAGGSLRLSCAASGNIFTYNAMGWYRQAPGKERELVAAISWTADSTYYADSVKGRFTISRDNAKNTVYLQMNSLKPEDTAVYYFAADSQYADYGYWGQGTQVTVSS”, the “polyreactivity (PSR sort gate)” value is listed as “high polyreactivity”. For the sequence “QVQLVESGGGLVQAGGSLRLSCAASGNIFTYYVMGWYRQAPGKERELVAAISRRGGSTYYADSVKGRFTISRDNAKNTVYLQMNSLKPEDTAVYYCAKKYPRDMDYWGQGTQVTVSS”, the “polyreactivity (PSR sort gate)” value is on record as “high polyreactivity”.

For the sequence “QVQLVESGGGLVQAGGSLRLSCAASGNIFVLYAMGWYRQAPGKERELVASITSDGITYYADSVKGRFTISRDNAKNTVYLQMNSLKPEDTAVYYCAVDRSYRYLPRGDYWGQGTQVTVSS”, the “polyreactivity (PSR sort gate)” value is “low polyreactivity”. As for “QVQLVESGGGLVQAGGSLRLSCAASGNIFVYYAMGWYRQAPGKERELVAAISFRGGTTYYADSVKGRFTISRDNAKNTVYLQMNSLKPEDTAVYYCAKDIFQIGYRRYDSWGQGTQVTVSS”, the “polyreactivity (PSR sort gate)” value is “low polyreactivity”.

For the sequence “QVQLVESGGGLVQAGGSLRLSCAASGNIFWGNAMGWYRQAPGKERELVATITTGGSTNYADSVKGRFTISRDNAKNTVYLQMNSLKPEDTAVYYCNKRTTTASHLTSDYWGQGTQVTVSS”, the “polyreactivity (PSR sort gate)” value is on record as “low polyreactivity”.

Turning to “QVQLVESGGGLVQAGGSLRLSCAASGNIFWWDAMGWYRQAPGKERELVAAITSDSTTYYADSVKGRFTISRDNAKNTVYLQMNSLKPEDTAVYYCAAYSYGGQGVDYGYWGQGTQVTVSS”, the “polyreactivity (PSR sort gate)” value was “low polyreactivity”. For “QVQLVESGGGLVQAGGSLRLSCAASGNIFYINAMGWYRQAPGKERELVAAISSGGRTNYADSVKGRFTISRDNAKNTVYLQMNSLKPEDTAVYYCNADGWYAWRYYAPGGYDYWGQGTQVTVSS”, the “polyreactivity (PSR sort gate)” value is given as “low polyreactivity”. As for “QVQLVESGGGLVQAGGSLRLSCAASGNIFYKYAMGWYRQAPGKERELVAAITWRVVRTYYADSVKGRFTISRDNAKNTVYLQMNSLKPEDTAVYYCAALSRQSGDYWGQGTQVTVSS”, the “polyreactivity (PSR sort gate)” value is recorded as “high polyreactivity”.

With “QVQLVESGGGLVQAGGSLRLSCAASGNIFYLNTMGWYRQAPGKERELVASISRDGGRTYYADSVKGRFTISRDNAKNTVYLQMNSLKPEDTAVYYCAAVVLHHFTEVGQHYYWGQGTQVTVSS”, the “polyreactivity (PSR sort gate)” value is listed as “low polyreactivity”.

“QVQLVESGGGLVQAGGSLRLSCAASGNIFYLYAMGWYRQAPGKERELVARITIGGSTYYADSVKGRFTISRDNAKNTVYLQMNSLKPEDTAVYYCAARGPYYRYYYWGQGTQVTVSS”: the “polyreactivity (PSR sort gate)” value was “high polyreactivity”.

As for “QVQLVESGGGLVQAGGSLRLSCAASGNIFYNGMGWYRQAPGKERELVAAIRGSGGRTYADSVKGRFTISRDNAKNTVYLQMNSLKPEDTAVYYCATRRWYAYGVYYWGQGTQVTVSS”, the “polyreactivity (PSR sort gate)” value was “high polyreactivity”. Consider “QVQLVESGGGLVQAGGSLRLSCAASGNIFYQYAMGWYRQAPGKEREFVAAISISGTSTYADSVKGRFTISRDNAKNTVDLQLNSLKPEDTEVYWGQGTQVTVSS”, for which the “polyreactivity (PSR sort gate)” value was “low polyreactivity”. For the sequence “QVQLVESGGGLVQAGGSLRLSCAASGNIFYRYAMGWYRQAPGKERELVAAIRSGSSTNYADSVKGRFTISRDNAKNTVYLQMNSLKPEDTAVYYCAARSKYTHSRQSDYWGQGTQVTVSS”, the “polyreactivity (PSR sort gate)” value is reported as “low polyreactivity”. As to “QVQLVESGGGLVQAGGSLRLSCAASGNIFYSYAMGWYRQAPGKARELVATIRSGGSTYYADSVKGRFTISRDKAKNTVYLQMNSLKPEDTAVYYCAAPYPYRYFEYYWGQGTQVNVSS”, the “polyreactivity (PSR sort gate)” value is recorded as “low polyreactivity”. For “QVQLVESGGGLVQAGGSLRLSCAASGNIFYSYAMGWYRQAPGKERELVAAISSSGGGTYYADSVKGRFTISRDNAKNTVYLEMNSLKPEDTAVYYCATTARPTRYSSVRYYYWGQGTQVSVSS”, the “polyreactivity (PSR sort gate)” value is listed as “high polyreactivity”. Then “QVQLVESGGGLVQAGGSLRLSCAASGNIFYSYAMGWYRQAPGNERELVAAISWGGGRTYYADSVKGRFTISRDNAKNTVYLQMNSLKPEDTAVYYCNKVTRGGYDYWGQGTQVTVSS”, with “high polyreactivity”. On to “QVQLVESGGGLVQAGGSLRLSCAASGNIFYVYAMGWYRQAPGKEREFVAAIRGSGGSTYYADSVKGRFTISRDNAKNTVYLQMNSLIQEDTAVYYCDAVAWEGSGSEMYSWGQGTQVTVSS”, for which the “polyreactivity (PSR sort gate)” value was “low polyreactivity”.

With “QVQLVESGGGLVQAGGSLRLSCAASGNIFYVYAMGWYRQAPGKERELVAVISRNDGSTYYADSVKARFTISRDNAKNTVYLQMNSLKPEDTAVYYCNAEWYFWGQGTQVTVSS”, the “polyreactivity (PSR sort gate)” value is “low polyreactivity”. For “QVQLVESGGGLVQAGGSLRLSCAASGNIFYYNAMGWSRQGPGKEMELVAAISSGGSTNYADSVKGRFTISRDNAKNTVYLQMNSLKPEDTAVYYCAANYVTIGSGYYGYDYWGQGTQVTVSS”, the “polyreactivity (PSR sort gate)” value is recorded as “low polyreactivity”. In the case of “QVQLVESGGGLVQAGGSLRLSCAASGNIICGNAMGWYRQAPGKERELVAAISRRSGSTYYADSVKGRFTISRDNAKNTVYLQMNSLKPEDTAVYYCNTAGRVGTYDYWGQGTQVTVSS”, the “polyreactivity (PSR sort gate)” value is “high polyreactivity”. In the case of “QVQLVESGGGLVQAGGSLRLSCAASGNIIDANAMGWYRQAPGKERELVAAITSSGGSTYYADSVKGRFTISRDNAKNTVYLQMNSLKPEDTAVYYCAKSHAIYYWWDESWGQGTQVTVSS”, the “polyreactivity (PSR sort gate)” value was “low polyreactivity”.

With “QVQLVESGGGLVQAGGSLRLSCAASGNIIWGNAIGWYRQAPGKERELVAAISRRSGSTYYADSVKGRFTISRDIAKNTVYLQMNSLKPEDTAVYYCNTAGRVGTYDYWGQGTQVTVSS”, the “polyreactivity (PSR sort gate)” value is “high polyreactivity”. On to “QVQLVESGGGLVQAGGSLRLSCAASGNILGYYAMGWYRQAPGKERELVADINWDGGSTYYADSVKGRFTISRDNAKNTVYLQMNSLKPEDTAVYYCNAEVGITWWFREVDYWGQGTQVTVSS”, for which the “polyreactivity (PSR sort gate)” value is reported as “high polyreactivity”.

Turning to “QVQLVESGGGLVQAGGSLRLSCAASGNILPVYAMGWYRQAPGKEREFVAAITSRGGSTYYADSVKGRFTISRDNAKITVYLQMNSLKPDDTAVYYCAAKYLRAYGYWGQGTQVTVSS”, the “polyreactivity (PSR sort gate)” value is “high polyreactivity”. “QVQLVESGGGLVQAGGSLRLSCAASGNILTTYAMGWYRQAPGKERELVAAIRWSDGSTYYADSVKGRFTISRDNAKNTVYLQMYSLKPEDNAVYYCAADYHYPTWQGGYHYGYWGQGTQVTVSS”: the “polyreactivity (PSR sort gate)” value is “high polyreactivity”.

Consider “QVQLVESGGGLVQAGGSLRLSCAASGNILVSYTMGWSRQAPGKDTELVAAINSGGNTNYADSVKGRFTISRDNAKNTVYLQMNSLKPEDTAVYYCNAYTDSLWVYPFWIYRDYDDWGHGTQVTVSS”, for which the “polyreactivity (PSR sort gate)” value is “low polyreactivity”. Take “QVQLVESGGGLVQAGGSLRLSCAASGNISPDYGMGWYRQAPGKERELVAVIRWSDDSTYYADSVKGRFTISRDYAKNSVYLQMNSLKPEDTAVYYCSTDDYDAIDLDYWGQGTQVTVSS”: the “polyreactivity (PSR sort gate)” value is on record as “low polyreactivity”. Turning to “QVQLVESGGGLVQAGGSLRLSCAASGNIYDPYAMGWYRQAPGKERELVARISSGGRTDYADSVKGRFTISRDNAKNTVYLQMNSLKPEDTAVYYCAADVLQAYYLTLFGYRYYLVDYWGQGTQVTVSS”, the “polyreactivity (PSR sort gate)” value is “low polyreactivity”. In the case of “QVQLVESGGGLVQAGGSLRLSCAASGNIYNNYDMGWYRPAPGKERDLVARIDSGGSTNYADSVKGRFTISRDNAKNTVYLQMNCLKPEDTAVYYCAADFLSHWLLEMDYWGQGTQVTVSS”, the “polyreactivity (PSR sort gate)” value is reported as “low polyreactivity”. Then “QVQLVESGGGLVQAGGSLRLSCAASGNNFRSYAMGWYRQATGKERELVAAISGRGGSTYYADSVKGRFTISRDNAKNTVYLQMNSLKPEDTAVYYCAAESRRVNYANDYWGQGTQVTVSS”, with “high polyreactivity”.
